{
  "source": "paper PMC10415282",
  "about": "“High resolution cryo-EM and crystallographic snapshots of the actinobacterial two-in-one 2-oxoglutarate dehydrogenase” (Nature Communications, 2023)",
  "molecules": {"B1": {"name": "Corynebacterium glutamicum OdhA, full-length (residues 1-1221) (enzyme, Corynebacterium glutamicum ATCC13032, UniProt Q8NRC3 1-1221, looked up)", "chain": "MSSASTFGQNAWLVDEMFQQFQKDPKSVDKEWRELFEAQGGPNTTPATTEAQPSAPKESAKPAPKAAPAAKAAPRVETKPADKTAPKAKESSVPQQPKLPEPGQTPIRGIFKSIAKNMDISLEIPTATSVRDMPARLMFENRAMVNDQLKRTRGGKISFTHIIGYAMVKAVMAHPDMNNSYDVIDGKPTLIVPEHINLGLAIDLPQKDGSRALVVAAIKETEKMNFSEFLAAYEDIVARSRKGKLTMDDYQGVTVSLTNPGGIGTRHSVPRLTKGQGTIIGVGSMDYPAEFQGASEDRLAELGVGKLVTITSTYDHRVIQGAVSGEFLRTMSRLLTDDSFWDEIFDAMNVPYTPMRWAQDVPNTGVDKNTRVMQLIEAYRSRGHLIADTNPLSWVQPGMPVPDHRDLDIETHNLTIWDLDRTFNVGGFGGKETMTLREVLSRLRAAYTLKVGSEYTHILDRDERTWLQDRLEAGMPKPTQAEQKYILQKLNAAEAFENFLQTKYVGQKRFSLEGAEALIPLMDSAIDTAAGQGLDEVVIGMPHRGRLNVLFNIVGKPLASIFNEFEGQMEQGQIGGSGDVKYHLGSEGQHLQMFGDGEIKVSLTANPSHLEAVNPVMEGIVRAKQDYLDKGVDGKTVVPLLLHGDAAFAGLGIVPETINLAKLRGYDVGGTIHIVVNNQIGFTTTPDSSRSMHYATDYAKAFGCPVFHVNGDDPEAVVWVGQLATEYRRRFGKDVFIDLVCYRLRGHNEADDPSMTQPKMYELITGRETVRAQYTEDLLGRGDLSNEDAEAVVRDFHDQMESVFNEVKEGGKKQAEAQTGITGSQKLPHGLETNISREELLELGQAFANTPEGFNYHPRVAPVAKKRVSSVTEGGIDWAWGELLAFGSLANSGRLVRLAGEDSRRGTFTQRHAVAIDPATAEEFNPLHELAQSKGNNGKFLVYNSALTEYAGMGFEYGYSVGNEDSIVAWEAQFGDFANGAQTIIDEYVSSGEAKWGQTSKLILLLPHGYEGQGPDHSSARIERFLQLCAEGSMTVAQPSTPANHFHLLRRHALSDLKRPLVIFTPKSMLRNKAAASAPEDFTEVTKFQSVINDPNVADAAKVKKVMLVSGKLYYELAKRKEKDGRDDIAIVRIEMLHPIPFNRISEALAGYPNAEEVLFVQDEPANQGPWPFYQEHLPELIPNMPKMRRVSRRAQSSTATGVAKVHQLEEKQLIDEAFEA", "notes": "OdhA (E2o succinyltransferase and E1o 2-oxoglutarate decarboxylase domains on one chain), C. glutamicum ATCC13032, Uniprot Q8NRC3, residues 1-1221; TEV site (ENLYFQG) between the vector's His6-tag and the N-terminus; In the maps the chain is traced from Pro102; also called corynebacterial OdhA; source: E. coli BL21(DE3), purified (Ni-NTA, TEV cleavage, SEC); not shown: His6, N-terminal, cleaved"}},
  "key": {"OdhAΔ97": {"biological_target": "T1, OdhAΔ97 (Corynebacterium glutamicum, UniProt Q8NRC3)", "T1 construct": "gene odhA; N-terminal truncation, residues 98-1221, E. coli BL21(DE3), His6-TEV tag cleaved; homohexamer", "assay": "crystal structure, […] Å", "type": "binding", "conditions": "co-crystallised with 5 mM CoASH, pH 7.5; E2o acceptor site; pantothenate chain not traced"}, "OdhA": {"biological_target": "T2, OdhA (Corynebacterium glutamicum, UniProt Q8NRC3)", "T2 construct": "full length residues 1-1221, E. coli BL21(DE3), N-terminal His6-TEV tag cleaved for cryo-EM (OdhA-His6 kept for SPR); homohexamer, ~800 kDa", "assay": "cryo-EM structure, […] Å", "type": "binding"}, "[1]": {"biological_target": "the molecule itself", "assay": "crystal structure; OdhAΔ97 (26 mg/ml) with 5 mM CoASH; 0.1 M Hepes-NaOH pH 7.5, 5% PEG 4000, 30% MPD; 2.5 Å; protomers related by crystallographic symmetry"}, "[2]": {"biological_target": "the molecule itself", "assay": "crystal structure; MsKGD (10 mg/ml, 2 mM ThDP, 5 mM MgCl2) co-crystallised with GarA at 1:1 molar ratio; 0.1 M bicine pH 8.0, 30% PEG550MME, 0.2 M NaCl; 4.6 Å"}, "[3]": {"biological_target": "B1", "assay": "cryo-EM structure; single particle, OdhA incubated with OdhI at molar ratio 1:10, then SEC (Superose 6 increase, 20 mM Hepes pH 7.5, 500 mM NaCl); D3 symmetry; 2.3 Å", "conditions": "both partners purified"}, "[4]": {"biological_target": "the molecule itself", "assay": "AUC; sedimentation velocity, 20 °C, 30,000 rpm, seven concentrations from 4 mg/ml to 0.0625 mg/ml, 20 mM Hepes pH 7.5, 500 mM NaCl"}},
  "data": [
    {"molecule": "CC(C)(COP(=O)(O)OP(=O)(O)OC[C@H]1O[C@@H](n2cnc3c(N)ncnc32)[C@H](O)[C@@H]1OP(=O)(O)O)[C@@H](O)C(=O)NCCC(=O)NCCS", "note": "[CoASH]", "values": [
      {"measurement": "crystal structure, 2.46 Å", "setting": "OdhAΔ97", "result": "we could model CoASH, which was added to the cocrystallization mixture, as bound"},
      {"measurement": "cryo-EM structure, 2.2 Å", "setting": "OdhA; E2o active site, out conformation, ThDP-Mg and acetyl-CoA also bound", "result": "the OdhA-CoASH complex shows the bound CoASH with the pantothenate chain not entering"}
    ]},
    {"molecule": "CC(=O)SCCNC(=O)CCNC(=O)[C@H](O)C(C)(C)COP(=O)(O)OP(=O)(O)OC[C@H]1O[C@@H](n2cnc3c(N)ncnc32)[C@H](O)[C@@H]1OP(=O)(O)O", "note": "[acetyl-CoA]", "values": [
      {"measurement": "cryo-EM structure, 2.2 Å", "setting": "OdhA; allosteric, E1o domain pocket, no ligand added (co-purified from E. coli), activated conformation", "result": "show an acetyl-CoA molecule bound to E1o allosteric site which could be positioned unambiguously"}
    ]},
    {"molecule": "OdhAΔ97 (C. glutamicum OdhA residues 98-1221) (domain or fragment, Corynebacterium glutamicum ATCC13032, UniProt Q8NRC3 98-1221, looked up, OdhA, C. glutamicum ATCC13032, Uniprot Q8NRC3, residues 98-1221 (without the flexible N-terminal segment); Crystallised with 5 mM CoASH; source: E. coli BL21(DE3), purified (Ni-NTA, TEV cleavage, SEC); not shown: His6, N-terminal, cleaved) KLPEPGQTPIRGIFKSIAKNMDISLEIPTATSVRDMPARLMFENRAMVNDQLKRTRGGKISFTHIIGYAMVKAVMAHPDMNNSYDVIDGKPTLIVPEHINLGLAIDLPQKDGSRALVVAAIKETEKMNFSEFLAAYEDIVARSRKGKLTMDDYQGVTVSLTNPGGIGTRHSVPRLTKGQGTIIGVGSMDYPAEFQGASEDRLAELGVGKLVTITSTYDHRVIQGAVSGEFLRTMSRLLTDDSFWDEIFDAMNVPYTPMRWAQDVPNTGVDKNTRVMQLIEAYRSRGHLIADTNPLSWVQPGMPVPDHRDLDIETHNLTIWDLDRTFNVGGFGGKETMTLREVLSRLRAAYTLKVGSEYTHILDRDERTWLQDRLEAGMPKPTQAEQKYILQKLNAAEAFENFLQTKYVGQKRFSLEGAEALIPLMDSAIDTAAGQGLDEVVIGMPHRGRLNVLFNIVGKPLASIFNEFEGQMEQGQIGGSGDVKYHLGSEGQHLQMFGDGEIKVSLTANPSHLEAVNPVMEGIVRAKQDYLDKGVDGKTVVPLLLHGDAAFAGLGIVPETINLAKLRGYDVGGTIHIVVNNQIGFTTTPDSSRSMHYATDYAKAFGCPVFHVNGDDPEAVVWVGQLATEYRRRFGKDVFIDLVCYRLRGHNEADDPSMTQPKMYELITGRETVRAQYTEDLLGRGDLSNEDAEAVVRDFHDQMESVFNEVKEGGKKQAEAQTGITGSQKLPHGLETNISREELLELGQAFANTPEGFNYHPRVAPVAKKRVSSVTEGGIDWAWGELLAFGSLANSGRLVRLAGEDSRRGTFTQRHAVAIDPATAEEFNPLHELAQSKGNNGKFLVYNSALTEYAGMGFEYGYSVGNEDSIVAWEAQFGDFANGAQTIIDEYVSSGEAKWGQTSKLILLLPHGYEGQGPDHSSARIERFLQLCAEGSMTVAQPSTPANHFHLLRRHALSDLKRPLVIFTPKSMLRNKAAASAPEDFTEVTKFQSVINDPNVADAAKVKKVMLVSGKLYYELAKRKEKDGRDDIAIVRIEMLHPIPFNRISEALAGYPNAEEVLFVQDEPANQGPWPFYQEHLPELIPNMPKMRRVSRRAQSSTATGVAKVHQLEEKQLIDEAFEA", "values": [
      {"measurement": "stoichiometry N", "setting": "[1]", "result": 6}
    ]},
    {"molecule": "Mycobacterium smegmatis KGD, full-length (enzyme, UniProt A0R2B1 1-1227, looked up, KGD (two-in-one 2-oxoglutarate dehydrogenase, E2o and E1o domains on one chain), Mycobacterium smegmatis, full-length protein; Crystallised with 2 mM ThDP and 5 mM MgCl2; also called MsKGD; mycobacterial KGD; source: E. coli BL21(DE3)pLysS, purified as previously described) MSSSPSPFGQNEWLVEEMYRKFRDDPSSVDPSWHEFLVDYSPEPTTDSASNGRTTTAAPVTPPTPAPAPAPEPKAAPKPAAKTEAKPAKPAKSATPAKGDESQILRGAAAAVVKNMNASLEVPTATSVRAIPAKLMIDNRVVINNHLKRTRGGKISFTHLLGYAIVQAVKKFPNMNRHFAVVDGKPTAITPAHTNLGLAIDLQGKDGNRSLVVAAIKRCETMRFGQFIAAYEDIVRRARDGKLTAEDFSGVTISLTNPGTLGTVHSVPRLMQGQGAIIGAGAMEYPAEFQGASEERIADLGIGKLITLTSTYDHRIIQGAESGDFLRTIHQLLLDDDFFDEIFRELGIPYEPVRWRTDNPDSIEDKNARVIELIAAYRNRGHLMADIDPLRLDNTRFRSHPDLDVNSHGLTLWDLDREFKVDGFAGVQRKKLRDILSVLRDAYCRHVGVEYTHILEPEQQRWIQERVETKHDKPTVAEQKYILSKLNAAEAFETFLQTKYVGQKRFSLEGAETVIPMMDAVIDQCAEHGLDEVVIAMPHRGRLNVLANIVGKPYSQIFSEFEGNLNPSQAHGSGDVKYHLGATGTYIQMFGDNDIEVSLTANPSHLEAVDPVLEGLVRAKQDLLDTGEEGSDNRFSVVPLMLHGDAAFAGQGVVAETLNLALLRGYRTGGTIHIVVNNQIGFTTAPTDSRSSEYCTDVAKMIGAPIFHVNGDDPEACAWVARLAVDFRQAFKKDVVIDMLCYRRRGHNEGDDPSMTQPYMYDVIDTKRGSRKAYTEALIGRGDISMKEAEDALRDYQGQLERVFNEVRELEKHEIEPSESVEADQQIPSKLATAVDKAMLQRIGDAHLALPEGFTVHPRVRPVLEKRREMAYEGRIDWAFAELLALGSLIAEGKLVRLSGQDTQRGTFTQRHAVIVDRKTGEEFTPLQLLATNPDGTPTGGKFLVYNSALSEFAAVGFEYGYSVGNPDAMVLWEAQFGDFVNGAQSIIDEFISSGEAKWGQLSDVVLLLPHGHEGQGPDHTSGRIERFLQLWAEGSMTIAMPSTPANYFHLLRRHGKDGIQRPLIVFTPKSMLRNKAAVSDIRDFTESKFRSVLEEPMYTDGEGDRNKVTRLLLTSGKIYYELAARKAKENREDVAIVRIEQLAPLPRRRLAETLDRYPNVKEKFWVQEEPANQGAWPSFGLTLPEILPDHFTGLKRISRRAMSAPSSGSSKVHAVEQQEILDTAFG", "values": [
      {"measurement": "stoichiometry N", "setting": "[2]", "result": 6}
    ]},
    {"molecule": "Corynebacterium glutamicum OdhI (residues 1-143) (natural protein, Corynebacterium glutamicum ATCC13032, UniProt Q8NQJ3 1-143, looked up, In the map only the FHA domain (Glu40-Ala142) is traceable; source: E. coli BL21(DE3), purified (Ni-NTA, TEV cleavage, SEC); not shown: His6, N-terminal, cleaved) MSDNNGTPEPQVETTSVFRADLLKEMESSTGTAPASTGAENLPAGSALLVVKRGPNAGARFLLDQPTTTAGRHPESDIFLDDVTVSRRHAEFRINEGEFEVVDVGSLNGTYVNREPRNAQVMQTGDEIQIGKFRLVFLAGPAE", "values": [
      {"measurement": "stoichiometry N", "setting": "[3]", "result": 1}
    ]},
    {"molecule": "B1", "values": [
      {"measurement": "stoichiometry N", "setting": "[4]", "result": 6}
    ]}
  ]
}
